Measurements: patent publication US20080267974A1 (SCHERING, published 2008)
Several values for one entry are separate records, joined by “and”; a condition that tells them apart may be missing. Identical values can stand only once. Like-named read-outs stand apart in the source and are kept apart here.

Assays:
[1] = target: T1, tumor necrosis factor alpha (TNFα) (human, UniProt P01375 77-233); assay: affinity by IC50 ELISA (so named in paragraph 380)
[2] = target: T1, tumor necrosis factor alpha (TNFα); assay: affinity by IC50 ELISA (so named in paragraph 380); remark: listed apart in the source
[3] = target: T1, tumor necrosis factor alpha (TNFα); assay: cell-based or functional assay
[4] = target: T1, tumor necrosis factor alpha (TNFα); assay: affinity by IC50 ELISA (so named in paragraph 380); remark: listed apart in the source
[5] = target: T1, tumor necrosis factor alpha (TNFα); assay: affinity by IC50 ELISA (so named in paragraph 380); remark: listed apart in the source
[6] = target: T1, tumor necrosis factor alpha (TNFα); assay: affinity by IC50 ELISA (so named in paragraph 380); remark: listed apart in the source

T1 sequence (P01375 77-233 limits assumed): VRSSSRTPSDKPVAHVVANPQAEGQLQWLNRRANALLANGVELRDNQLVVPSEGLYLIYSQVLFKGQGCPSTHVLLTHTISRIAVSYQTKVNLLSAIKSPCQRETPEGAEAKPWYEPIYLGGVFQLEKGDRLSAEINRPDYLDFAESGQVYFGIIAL

Row | Binder | Affinity [1] [nM] | Affinity [2] [nM] | IC50, TNFα cytotoxicity assay (WEHI-13VAR cells) [3] | Affinity [4] [nM] | Affinity [5] [nM] | Affinity [6] [nM]
1 | MAb 695 (antibody, V domains shown, also called 121 D11; H1192/L250) VH: EVQLLESGGGLIQPGGSLRLSCAASGFTVSSNYMSWVRQAPGKGLEWVSVIYSGGRTYYADSVKGRFTISRDSSKNTLYLQMNSLRAEDTAVYYCARNYYGSTYDYWGQGTLVTVSS VL: EIVLTQSPVTLSVPPGERASLSCRASQNIYTAVAWYQQKPGQAPRLLIYGASTRATGIPARFSGGGSGTDYTLTISSLESEDFAVYHCQQYHSWPLTFGGGTKLEIK | 0.6 | 0.6 | 22.9 nM |  |  | 
2 | MAb 696 (antibody, V domains shown, also called 121 E1B; H1193/L250) VH: EVQLVESGGGLIQPGGSLRLSCAASGFTVSSNYMSWVRQAPGKGLEWVSVIYSGGRTYYADSVKGRFTISRDSSKNTLYLQMNSLRAEDTAVYYCARNYYGSTYDYWGQGTLVTVSS VL: EIVLTQSPVTLSVPPGERASLSCRASQNIYTAVAWYQQKPGQAPRLLIYGASTRATGIPARFSGGGSGTDYTLTISSLESEDFAVYHCQQYHSWPLTFGGGTKLEIK | 0.6 | 0.6 |  |  |  | 
3 | MAb 698 (antibody, V domains shown, also called 131 E11; H1272/L250) VH: EVQLLESGGGLIQPGGSLRLSCAASGFTVGNNYMSWVRQAPGKGLEWVSVIYSAGSTYYADSVKGRFIISRDNSKDTVYLQMNSLRVDDTAVYYCARNYYGSTYDYWGQGTLVTVSS VL: EIVLTQSPVTLSVPPGERASLSCRASQNIYTAVAWYQQKPGQAPRLLIYGASTRATGIPARFSGGGSGTDYTLTISSLESEDFAVYHCQQYHSWPLTFGGGTKLEIK | 2.3 | 2.3 | 152 nM |  |  | 
4 | MAb 699 (antibody, V domains shown, also called 183 E9; H1273/L250) VH: EVQLLESGGGLIQPGGSLRLSCAASGFTVSSNYMSWVRQAPGKGLEWVSVIYSGGSTYYADSVKGRFTISRDNAKNTVYLQMNSLRSEDTAVYYCARNYYGSTYDYWGQGTLVTVSS VL: EIVLTQSPVTLSVPPGERASLSCRASQNIYTAVAWYQQKPGQAPRLLIYGASTRATGIPARFSGGGSGTDYTLTISSLESEDFAVYHCQQYHSWPLTFGGGTKLEIK | 7.3 | 7.3 | 350 nM |  |  | 
5 | MAb 714 (antibody, V domains shown, also called 141 A10; H1277/L250) VH: EVQLVESGGGLVQPGGSLKLSCAASGFTVSSNYMSWVRQAPGKGLEWVSVIYRGGSTYYADSVKGRFTISRDISRNMVYLQMNSLRAEDTAVYYCARNYYGSTYDYWGQGTLVTVSS VL: EIVLTQSPVTLSVPPGERASLSCRASQNIYTAVAWYQQKPGQAPRLLIYGASTRATGIPARFSGGGSGTDYTLTISSLESEDFAVYHCQQYHSWPLTFGGGTKLEIK | 0.4 | 0.4 | 7.75 nM |  |  | 
6 | MAb 715 (antibody, V domains shown, also called 141 F2; H1278/L250) VH: EVQLLESGGGLIQPGGSLRLSCAASGFTVSNNYMSWVRQAPGKGLQWVAVIYSGGSTYYPDSMKGRFTISRDNSKNTLYLQMNSLRAEDTAVYYCARNYYGSTYDYWGQGTLVTVSS VL: EIVLTQSPVTLSVPPGERASLSCRASQNIYTAVAWYQQKPGQAPRLLIYGASTRATGIPARFSGGGSGTDYTLTISSLESEDFAVYHCQQYHSWPLTFGGGTKLEIK | 0.6 | 0.6 | 21.4 nM |  |  | 
7 | MAb 716 (antibody, V domains shown, also called 142 F2; H1280/L250) VH: EVQLLESGGGLIQPGGSLRLSCAASGFTVSSNYMSWVRQAPGKGLEWVSVIYSGGSTYYADSVKGRFTISRDNSKNTLYLQMNSLRAEDTAVYYCARNYYGSTYDYWGQGTLVTVSS VL: EIVLTQSPVTLSVPPGERASLSCRASQNIYTAVAWYQQKPGQAPRLLIYGASTRATGIPARFSGGGSGTDYTLTISSLESEDFAVYHCQQYHSWPLTFGGGTKLEIK | > 10 | > 10 | 31.4 nM |  |  | 
8 | MAb 874 (antibody, V domains shown, IgG1/kappa, CHO; also called H1373/L250) VH: EVQLLESGGGLIQPGGSLRLSCAASGFTVSSNYMSWVRQAPGKGLEWVSVIYSGGRTYYADSVKGRFTISRDSSKNTLYLQMNSLRAEDTAVYYCARNYAGSTYDYWGQGTLVTVSS VL: EIVLTQSPVTLSVPPGERASLSCRASQNIYTAVAWYQQKPGQAPRLLIYGASTRATGIPARFSGGGSGTDYTLTISSLESEDFAVYHCQQYHSWPLTFGGGTKLEIK |  |  |  | 0.56 | 0.56 | 
9 | MAb 892 (antibody, V domains shown, IgG1/kappa, CHO; also called H1388/L250) VH: EVQLLESGGGLIQPGGSLRLSCAASGFTVSSNYMSWVRQAPGKGLEWVSVIYSGGRTYYADSVKGRFTISRDSSKNTLYLQMNSLRAEDTAVYYCARNYYGSLYDYWGQGTLVTVSS VL: EIVLTQSPVTLSVPPGERASLSCRASQNIYTAVAWYQQKPGQAPRLLIYGASTRATGIPARFSGGGSGTDYTLTISSLESEDFAVYHCQQYHSWPLTFGGGTKLEIK |  |  |  | 0.43 | 0.43 | 
10 | MAb 1028 (antibody, V domains shown, IgG1/kappa, CHO; also called H1478/L250) VH: EVQLLESGGGLIQPGGSLRLSCAASGFTVSSNYMSWVRQAPGKGLEWVSVIYSGGRTYYADSVKGRFTISRDSSKNTLYLQMNSLRAEDTAVYYCARTYYGSTYDYWGQGTLVTVSS VL: EIVLTQSPVTLSVPPGERASLSCRASQNIYTAVAWYQQKPGQAPRLLIYGASTRATGIPARFSGGGSGTDYTLTISSLESEDFAVYHCQQYHSWPLTFGGGTKLEIK |  |  |  | 0.32 | 0.32 | 
11 | MAb 1029 (antibody, V domains shown, IgG1/kappa, CHO; also called H1479/L250) VH: EVQLLESGGGLIQPGGSLRLSCAASGFTVSSNYMSWVRQAPGKGLEWVSVIYSGGRTYYADSVKGRFTISRDSSKNTLYLQMNSLRAEDTAVYYCARLYYGSTYDYWGQGTLVTVSS VL: EIVLTQSPVTLSVPPGERASLSCRASQNIYTAVAWYQQKPGQAPRLLIYGASTRATGIPARFSGGGSGTDYTLTISSLESEDFAVYHCQQYHSWPLTFGGGTKLEIK |  |  |  | 0.36 | 0.36 | 
12 | MAb 1036 (antibody, V domains shown, IgG1/kappa, CHO; also called H1478/L332) VH: EVQLLESGGGLIQPGGSLRLSCAASGFTVSSNYMSWVRQAPGKGLEWVSVIYSGGRTYYADSVKGRFTISRDSSKNTLYLQMNSLRAEDTAVYYCARTYYGSTYDYWGQGTLVTVSS VL: EIVLTQSPVTLSVPPGERASLSCRASQNIYTAVAWYQQKPGQAPRLLIYGASTRATGIPARFSGGGSGTDYTLTISSLESEDFAVYHCQQWHSWPLTFGGGTKLEIK |  |  |  | 0.18 |  | 0.18
13 | MAb 1037 (antibody, V domains shown, IgG1/kappa, CHO; also called H1482/L250) VH: EVQLLESGGGLIQPGGSLRLSCAASGFTVSSNYMSWVRQAPGKGLEWVSVIYSGGRTYYADSVKGRFTISRDSSKNTLYLQMNSLRAEDTAVYYCARNYYGSTFDYWGQGTLVTVSS VL: EIVLTQSPVTLSVPPGERASLSCRASQNIYTAVAWYQQKPGQAPRLLIYGASTRATGIPARFSGGGSGTDYTLTISSLESEDFAVYHCQQYHSWPLTFGGGTKLEIK |  |  |  | 0.12 | 0.12 | 
14 | MAb 1038 (antibody, V domains shown, IgG1/kappa, CHO; also called H1483/L250) VH: EVQLLESGGGLIQPGGSLRLSCAASGFTVSSNYMSWVRQAPGKGLEWVSVIYSGGRTYYADSVKGRFTISRDSSKNTLYLQMNSLRAEDTAVYYCARNYYGSTMDYWGQGTLVTVSS VL: EIVLTQSPVTLSVPPGERASLSCRASQNIYTAVAWYQQKPGQAPRLLIYGASTRATGIPARFSGGGSGTDYTLTISSLESEDFAVYHCQQYHSWPLTFGGGTKLEIK |  |  |  | 0.25 | 0.25 | 
15 | MAb 1042 (antibody, V domains shown, IgG1/kappa, CHO; also called H1482/L332) VH: EVQLLESGGGLIQPGGSLRLSCAASGFTVSSNYMSWVRQAPGKGLEWVSVIYSGGRTYYADSVKGRFTISRDSSKNTLYLQMNSLRAEDTAVYYCARNYYGSTFDYWGQGTLVTVSS VL: EIVLTQSPVTLSVPPGERASLSCRASQNIYTAVAWYQQKPGQAPRLLIYGASTRATGIPARFSGGGSGTDYTLTISSLESEDFAVYHCQQWHSWPLTFGGGTKLEIK |  |  |  | 0.07 |  | 0.07
16 | MAb 1066 (antibody, V domains shown, IgG1/kappa, CHO; also called H1487/L250) VH: EVQLLESGGGLIQPGGSLRLSCAASGFTVSSNYMSWVRQAPGKGLEWVSVIYSGGRTYYADSVKGRFTISRDSSKNTLYLQMNSLRAEDTAVYYCARNYYGSTLDYWGQGTLVTVSS VL: EIVLTQSPVTLSVPPGERASLSCRASQNIYTAVAWYQQKPGQAPRLLIYGASTRATGIPARFSGGGSGTDYTLTISSLESEDFAVYHCQQYHSWPLTFGGGTKLEIK |  |  |  | 0.13 | 0.13 | 
17 | MAb 1132 (antibody, V domains shown, IgG1/kappa, CHO; also called H1518/L250) VH: EVQLLESGGGLIQPGGSLRLSCAASGFTVSSNYMSWVRQAPGKGLEWVSVIYSGGRTYYADSVKGRFTISRDSSKNTLYLQMNSLRAEDTAVYYCARNYYGSTHDYWGQGTLVTVSS VL: EIVLTQSPVTLSVPPGERASLSCRASQNIYTAVAWYQQKPGQAPRLLIYGASTRATGIPARFSGGGSGTDYTLTISSLESEDFAVYHCQQYHSWPLTFGGGTKLEIK |  |  |  | 0.1 | 0.1 | 
18 | MAb 805 (antibody, V domains shown, also called 156 H7; H1329/L250) VH: EVQLVESGGGLIQPGGSLRLSCAVSGLNVSRDYMSWVRQAPGKGLEWISVIYRGGATMYADSVKGRFTISRDTSKNTVFLQMSRLKVADTAVYYCARNYYGSTYDYWGQGTLVTVSS VL: EIVLTQSPVTLSVPPGERASLSCRASQNIYTAVAWYQQKPGQAPRLLIYGASTRATGIPARFSGGGSGTDYTLTISSLESEDFAVYHCQQYHSWPLTFGGGTKLEIK | 0.6 | 0.6 | 4.8 nM and 10.3 nM |  |  | 
19 | MAb 1007 (antibody, V domains shown) VH: EVQLVESGGGLIQPGGSLRLSCAVSGLNVSRDYMSWVRQAPGKGLEWISVIYRGGATMYADSVKGRFTISRDTSKNTVFLQMSRLKVADTAVYYCARNYYGSTYDYWGQGTLVTVSS VL: EIVLTQSPVTLSVPPGERASLSCRASQNIYTAVAWYQQKPGQAPRLLIYGASTRATGIPARFSGGGSGTDYTLTISSLESEDFAVYHCQQWHSWPLTFGGGTKLEIK |  |  | 12.2 nM |  |  | 
